# Paper PMC4051775, “Intestinal Cell Barrier Function In Vitro Is Severely Compromised by Keratin 8 and 18 Mutations Identified in Patients with Inflammatory Bowel Disease” (PLoS ONE, 2014)
# Tests used:
# Conditions in all cases: both partners purified
# [1] = molecular target: T1, keratin 8 wild type recombinant protein (human, UniProt P05787 1-483); assay: SPR; published SPR data of Owens et al. (ref. 26) re-analysed here with ENZO: Enzyme Kinetics to calculate Kd; K8 wild type or mutant in solution, wild type K18 partner immobilised
# T1 construct: keratin 8 (K8), wild type, recombinant protein; also called K8 WT; K8
# T1 sequence (looked up): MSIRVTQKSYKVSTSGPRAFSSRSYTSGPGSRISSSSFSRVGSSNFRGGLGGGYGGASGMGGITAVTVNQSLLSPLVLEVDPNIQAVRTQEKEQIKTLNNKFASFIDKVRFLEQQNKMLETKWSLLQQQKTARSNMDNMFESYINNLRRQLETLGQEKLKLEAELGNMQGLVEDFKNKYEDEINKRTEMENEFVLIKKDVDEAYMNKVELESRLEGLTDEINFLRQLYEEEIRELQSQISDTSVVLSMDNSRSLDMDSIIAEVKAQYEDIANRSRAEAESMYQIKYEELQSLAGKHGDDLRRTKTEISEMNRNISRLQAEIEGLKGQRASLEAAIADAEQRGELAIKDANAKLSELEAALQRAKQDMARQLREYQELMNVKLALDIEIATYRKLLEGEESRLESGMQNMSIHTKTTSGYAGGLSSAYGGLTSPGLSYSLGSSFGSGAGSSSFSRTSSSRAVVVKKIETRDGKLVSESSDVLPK
# [2] = molecular target: T2, keratin 8 K464N recombinant protein (human, UniProt P05787 1-483, K464N); assay: as above
# T2 construct: keratin 8 (K8) with the IBD patient mutation K464N, recombinant protein; The mutation was found in IBD patients; also called K8 K464N
# T2 sequence (looked up): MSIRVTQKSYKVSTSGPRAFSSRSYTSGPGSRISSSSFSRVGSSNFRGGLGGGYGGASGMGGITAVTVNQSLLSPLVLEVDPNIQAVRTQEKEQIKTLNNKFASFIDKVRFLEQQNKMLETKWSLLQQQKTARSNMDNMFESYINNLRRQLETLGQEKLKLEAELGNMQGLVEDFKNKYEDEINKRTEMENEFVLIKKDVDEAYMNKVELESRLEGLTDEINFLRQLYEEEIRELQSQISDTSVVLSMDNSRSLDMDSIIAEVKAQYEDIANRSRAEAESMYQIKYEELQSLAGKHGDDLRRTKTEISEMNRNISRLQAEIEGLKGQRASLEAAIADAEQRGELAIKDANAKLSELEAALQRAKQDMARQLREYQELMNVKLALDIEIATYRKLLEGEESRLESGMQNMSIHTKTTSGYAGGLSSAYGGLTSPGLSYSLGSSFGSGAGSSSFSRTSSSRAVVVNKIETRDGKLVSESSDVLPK
# [3] = molecular target: T3, keratin 8 G62C recombinant protein (human, UniProt P05787 1-483, G62C); assay: as above
# T3 construct: keratin 8 (K8) with the IBD patient mutation G62C, recombinant protein; The mutation was found in IBD patients; also called K8 G62C
# T3 sequence (looked up): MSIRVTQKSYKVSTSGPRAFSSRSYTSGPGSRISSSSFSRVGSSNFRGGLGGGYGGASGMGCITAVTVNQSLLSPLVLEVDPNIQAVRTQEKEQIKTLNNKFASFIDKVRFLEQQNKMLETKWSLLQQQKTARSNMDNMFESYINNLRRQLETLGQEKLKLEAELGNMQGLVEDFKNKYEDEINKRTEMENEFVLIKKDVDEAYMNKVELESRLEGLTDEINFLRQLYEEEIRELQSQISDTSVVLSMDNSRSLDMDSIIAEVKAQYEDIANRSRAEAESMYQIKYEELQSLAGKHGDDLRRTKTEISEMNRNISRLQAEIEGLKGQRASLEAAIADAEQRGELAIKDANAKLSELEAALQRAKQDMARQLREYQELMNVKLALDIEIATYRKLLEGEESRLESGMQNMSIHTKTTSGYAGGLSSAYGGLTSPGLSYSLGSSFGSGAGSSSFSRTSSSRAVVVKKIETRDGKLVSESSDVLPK
# [4] = molecular target: T1, keratin 8 wild type recombinant protein; assay: SPR; published SPR data of Owens et al. (ref. 26) re-analysed here with ENZO: Enzyme Kinetics to calculate Kd; monomeric K18 wild type or S230T in solution, wild type K8 immobilised
Binder,Kd [1],Kd [2],Kd [3],Kd [4]
"keratin 18 wild type recombinant protein (natural protein, human, UniProt P05783 1-430, looked up, keratin 18 (K18), wild type, recombinant protein; also called K18 WT; K18) MSFTTRSTFSTNYRSLGSVQAPSYGARPVSSAASVYAGAGGSGSRISVSRSTSFRGGMGSGGLATGIAGGLAGMGGIQNEKETMQSLNDRLASYLDRVRSLETENRRLESKIREHLEKKGPQVRDWSHYFKIIEDLRAQIFANTVDNARIVLQIDNARLAADDFRVKYETELAMRQSVENDIHGLRKVIDDTNITRLQLETEIEALKEELLFMKKNHEEEVKGLQAQIASSGLTVEVDAPKSQDLAKIMADIRAQYDELARKNREELDKYWSQQIEESTTVVTTQSAEVGAAETTLTELRRTVQSLEIDLDSMRNLKASLENSLREVEARYALQMEQLNGILLHLESELAQTRAEGQRQAQEYEALLNIKVKLEAEIATYRRLLEDGEDFNLGDALDSSNSMQTIQKTTTRRIVDGKVVSETNDTKVLRH",8.5 nM,13.4 nM,26.2 nM,8.5 nM
"keratin 18 S230T recombinant protein (natural protein, human, UniProt P05783 1-430, looked up, keratin 18 (K18) with the variation S230T found in an IBD patient and in controls, recombinant protein; Natural variant, earlier designated a polymorphism; also called K18 S230T) MSFTTRSTFSTNYRSLGSVQAPSYGARPVSSAASVYAGAGGSGSRISVSRSTSFRGGMGSGGLATGIAGGLAGMGGIQNEKETMQSLNDRLASYLDRVRSLETENRRLESKIREHLEKKGPQVRDWSHYFKIIEDLRAQIFANTVDNARIVLQIDNARLAADDFRVKYETELAMRQSVENDIHGLRKVIDDTNITRLQLETEIEALKEELLFMKKNHEEEVKGLQAQIATSGLTVEVDAPKSQDLAKIMADIRAQYDELARKNREELDKYWSQQIEESTTVVTTQSAEVGAAETTLTELRRTVQSLEIDLDSMRNLKASLENSLREVEARYALQMEQLNGILLHLESELAQTRAEGQRQAQEYEALLNIKVKLEAEIATYRRLLEDGEDFNLGDALDSSNSMQTIQKTTTRRIVDGKVVSETNDTKVLRH",–,–,–,161 nM
